These results are taken from publication PMC10995199, “Architecture and regulation of filamentous human cystathionine beta-synthase” (Nature Communications, 2024).

Common to all, as to conditions: remark: other sources report otherwise
The target in test [1] is T1, full-length human cystathionine beta-synthase, N-terminal His-tag removed during purification (CBS^FL) (human), P35520.
T1 chain: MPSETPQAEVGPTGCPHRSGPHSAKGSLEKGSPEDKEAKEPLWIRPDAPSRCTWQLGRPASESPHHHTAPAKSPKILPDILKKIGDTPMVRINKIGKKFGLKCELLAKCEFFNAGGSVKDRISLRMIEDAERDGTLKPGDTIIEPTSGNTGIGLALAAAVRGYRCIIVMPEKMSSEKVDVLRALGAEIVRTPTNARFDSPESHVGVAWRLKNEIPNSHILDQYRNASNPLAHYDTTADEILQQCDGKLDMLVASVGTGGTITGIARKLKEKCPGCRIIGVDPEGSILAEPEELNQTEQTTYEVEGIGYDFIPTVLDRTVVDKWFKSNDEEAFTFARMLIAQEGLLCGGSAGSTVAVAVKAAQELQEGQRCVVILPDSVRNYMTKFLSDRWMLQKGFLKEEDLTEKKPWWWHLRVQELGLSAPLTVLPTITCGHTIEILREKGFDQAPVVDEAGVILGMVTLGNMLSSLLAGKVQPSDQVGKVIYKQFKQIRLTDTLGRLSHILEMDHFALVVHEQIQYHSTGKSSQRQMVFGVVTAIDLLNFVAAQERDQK
In words: SEC; analytical Superose 6 Increase 10/300 GL; 25 mM HEPES pH 7.5, 500 mM NaCl, 0.5 mM TCEP, 5% glycerol; 250 µl loaded at 3.0 mg/ml; self-association. (In general: In gel filtration, larger molecules generally elute earlier.)

Test [2] addresses T1, full-length human cystathionine …. In words: native gel or EMSA; Coomassie-stained clear-native and blue-native PAGE; 25 mM HEPES pH 7.5, 200 mM NaCl, 2.0 mM TCEP; 1.0 mg/ml, 8.0 µg protein; without or with 1 mM SAM (no apparent effect on the oligomeric status); self-association. A general note: In EMSA bound probe runs differently from free probe, usually more slowly.
For test [3], the target named is T2, full-length human cystathionine beta-synthase with a permanent C-terminal His-tag (CBS^FL-CHis) (human), P35520.
T2 chain: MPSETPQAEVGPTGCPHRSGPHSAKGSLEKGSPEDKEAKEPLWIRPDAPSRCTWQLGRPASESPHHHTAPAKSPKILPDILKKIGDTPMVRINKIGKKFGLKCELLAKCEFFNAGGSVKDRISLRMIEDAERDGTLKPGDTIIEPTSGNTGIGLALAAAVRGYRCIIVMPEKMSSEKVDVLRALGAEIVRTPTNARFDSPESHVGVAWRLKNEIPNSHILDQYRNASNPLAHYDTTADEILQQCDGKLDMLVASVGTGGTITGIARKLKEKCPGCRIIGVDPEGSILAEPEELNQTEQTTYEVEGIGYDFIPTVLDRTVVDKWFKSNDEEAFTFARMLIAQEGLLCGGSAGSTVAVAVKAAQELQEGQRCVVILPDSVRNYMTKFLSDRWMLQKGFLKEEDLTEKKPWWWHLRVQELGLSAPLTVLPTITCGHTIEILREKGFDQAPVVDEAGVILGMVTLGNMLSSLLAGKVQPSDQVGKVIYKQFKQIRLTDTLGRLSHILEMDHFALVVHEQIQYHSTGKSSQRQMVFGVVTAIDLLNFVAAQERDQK
The test can be described thus: SEC; analytical Superose 6 Increase 10/300 GL; 25 mM HEPES pH 7.5, 500 mM NaCl, 0.5 mM TCEP, 5% glycerol; 250 µl loaded at 3.0 mg/ml; self-association.

B1: full-length human cystathionine beta-synthase, N-terminal His-tag removed during purification (CBS^FL), P35520 1-551 (enzyme)
chain: MPSETPQAEVGPTGCPHRSGPHSAKGSLEKGSPEDKEAKEPLWIRPDAPSRCTWQLGRPASESPHHHTAPAKSPKILPDILKKIGDTPMVRINKIGKKFGLKCELLAKCEFFNAGGSVKDRISLRMIEDAERDGTLKPGDTIIEPTSGNTGIGLALAAAVRGYRCIIVMPEKMSSEKVDVLRALGAEIVRTPTNARFDSPESHVGVAWRLKNEIPNSHILDQYRNASNPLAHYDTTADEILQQCDGKLDMLVASVGTGGTITGIARKLKEKCPGCRIIGVDPEGSILAEPEELNQTEQTTYEVEGIGYDFIPTVLDRTVVDKWFKSNDEEAFTFARMLIAQEGLLCGGSAGSTVAVAVKAAQELQEGQRCVVILPDSVRNYMTKFLSDRWMLQKGFLKEEDLTEKKPWWWHLRVQELGLSAPLTVLPTITCGHTIEILREKGFDQAPVVDEAGVILGMVTLGNMLSSLLAGKVQPSDQVGKVIYKQFKQIRLTDTLGRLSHILEMDHFALVVHEQIQYHSTGKSSQRQMVFGVVTAIDLLNFVAAQERDQK
B1: the stoichiometry N in test [1] and in test [2] was > 4 throughout.

B2: full-length human cystathionine beta-synthase with a permanent C-terminal His-tag (CBS^FL-CHis), P35520 1-551 (enzyme)
chain: MPSETPQAEVGPTGCPHRSGPHSAKGSLEKGSPEDKEAKEPLWIRPDAPSRCTWQLGRPASESPHHHTAPAKSPKILPDILKKIGDTPMVRINKIGKKFGLKCELLAKCEFFNAGGSVKDRISLRMIEDAERDGTLKPGDTIIEPTSGNTGIGLALAAAVRGYRCIIVMPEKMSSEKVDVLRALGAEIVRTPTNARFDSPESHVGVAWRLKNEIPNSHILDQYRNASNPLAHYDTTADEILQQCDGKLDMLVASVGTGGTITGIARKLKEKCPGCRIIGVDPEGSILAEPEELNQTEQTTYEVEGIGYDFIPTVLDRTVVDKWFKSNDEEAFTFARMLIAQEGLLCGGSAGSTVAVAVKAAQELQEGQRCVVILPDSVRNYMTKFLSDRWMLQKGFLKEEDLTEKKPWWWHLRVQELGLSAPLTVLPTITCGHTIEILREKGFDQAPVVDEAGVILGMVTLGNMLSSLLAGKVQPSDQVGKVIYKQFKQIRLTDTLGRLSHILEMDHFALVVHEQIQYHSTGKSSQRQMVFGVVTAIDLLNFVAAQERDQK
B2: the stoichiometry N (as a rule, a count of units in the complex or per binding partner) in test [3] was > 4.
